Article PMC5529482, “Novel strategies to mimic transmembrane tumor necrosis factor-dependent activation of tumor necrosis factor receptor 2” (Scientific Reports, 2017)

Molecular target: T1, mouse TNFR2-Fc fusion protein (mouse, UniProt P25119 23-258)
T1 construct: mouse TNF receptor 2 (TNFR2)
T1 sequence (looked up): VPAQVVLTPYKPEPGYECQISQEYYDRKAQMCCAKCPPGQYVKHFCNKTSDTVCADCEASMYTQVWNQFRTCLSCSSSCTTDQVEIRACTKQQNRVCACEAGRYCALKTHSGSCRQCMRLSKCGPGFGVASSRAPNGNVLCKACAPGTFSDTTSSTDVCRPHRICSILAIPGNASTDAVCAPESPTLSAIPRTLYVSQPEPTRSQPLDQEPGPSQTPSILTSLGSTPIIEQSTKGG
Assay: ELISA; TNFR1-Fc or TNFR2-Fc coated at 1 µg/ml in PBS, 4 °C overnight; TNF muteins in 2% skim milk powder in PBS, 1 h RT; detected with anti-TNF clone F6C5 and HRP anti-mouse IgG
Conditions: both partners purified

B1: GCN4-sc-mTNFR2 (ligand)
chain: not shown
Work on B1 yielded an EC50 of 0.045 nM.
